Reference: patent US20060009520A1, “Retinoid-based methods for altering macrophage cholesterol” (priority 2004, published 2006)

How the values were obtained:
apoCIII = settings: transcriptional level; cited from earlier work
[1] = test system: ABCA1-mediated cholesterol efflux from mouse peritoneal macrophages; test: Cholesterol efflux to apoA-I from cholesterol-loaded macrophages; settings: 1 and 5 μM ATRA
RARγ/RXRα heterodimer [2] = biological target: T1, RARγ/RXRα heterodimer (Homo sapiens, UniProt P13631;P19793 P13631:1-454,P19793:1-462); test: EMSA; supershift with anti-RXRα and anti-RARγ; competed by 30-fold cold wild-type DR4; settings: tags: TNT wheat germ; pCMX-hRARγ, pCMX-hRXRα; label: 32P
From the text: (§1) RARs and LXRα and RXRα proteins were in vitro translated by using the TNT-coupled wheat germ extract systems (Promega). Double-strand oligonucleotides corresponding to the wild-type ABCA1 DR4 element 5′-[…]-3′ and the mutated sequence 5′-[…]-3′ were used, and electrophoresis mobility shift assays (EMSAs) were done with ³²P-labeled probes as described previously (6). For competition experiments, a 30-fold molar excess of cold unlabeled competitor DNA relative to labeled DNA was used. […] The oligonucleotides 5′-[…]-3′ and 5′-[…]-3′ were, respectively, used in EMSA analysis of DR4 elements a and b of the murine SREBP-1c promoter.
(§2) To further assess the possibility of a direct interaction between RARγ and the human ABCA1 promoter, a gel shift assay by using oligonucleotides consisting of the DR4 element was carried out. […] It was also determined whether RARα and RARβ could bind the ABCA1 DR4 element.

RARα/RXRα heterodimer [3] = biological target: T2, RARα/RXRα heterodimer (Homo sapiens, UniProt P10276;P19793 P10276:1-462,P19793:1-462); test: EMSA; data not shown; settings: tags: TNT wheat germ; label: 32P
From the text: as §1, §2

RARβ/RXRα heterodimer [4] = biological target: T3, RARβ/RXRα heterodimer (Homo sapiens, UniProt P10826;P19793 P10826:1-455,P19793:1-462); test: EMSA; data not shown; settings: tags: TNT wheat germ; label: 32P
From the text: as §1, §2

RARγ without RXRα = biological target: T4, RARγ without RXRα (Homo sapiens, UniProt P13631 P13631:1-454); test: EMSA; complex only in presence of RXRα; data not shown; settings: tags: TNT wheat germ; label: 32P
T4 sequence: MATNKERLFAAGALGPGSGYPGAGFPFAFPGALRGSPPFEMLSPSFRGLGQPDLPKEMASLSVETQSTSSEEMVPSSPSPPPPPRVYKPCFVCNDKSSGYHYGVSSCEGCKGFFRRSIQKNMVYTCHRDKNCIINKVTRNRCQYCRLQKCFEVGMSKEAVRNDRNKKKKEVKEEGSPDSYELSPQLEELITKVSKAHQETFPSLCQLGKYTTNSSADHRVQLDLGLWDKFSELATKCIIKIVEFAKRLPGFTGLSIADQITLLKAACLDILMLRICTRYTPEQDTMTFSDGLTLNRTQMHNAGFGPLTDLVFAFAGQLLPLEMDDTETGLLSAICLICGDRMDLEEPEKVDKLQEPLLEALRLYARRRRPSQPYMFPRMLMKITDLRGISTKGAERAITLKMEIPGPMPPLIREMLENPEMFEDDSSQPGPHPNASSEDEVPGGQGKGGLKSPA
From the text: as §1, §2

RARβ without RXRα = biological target: T5, RARβ without RXRα (Homo sapiens, UniProt P10826 P10826:1-455); test: as above; settings: tags: TNT wheat germ; label: 32P
T5 sequence: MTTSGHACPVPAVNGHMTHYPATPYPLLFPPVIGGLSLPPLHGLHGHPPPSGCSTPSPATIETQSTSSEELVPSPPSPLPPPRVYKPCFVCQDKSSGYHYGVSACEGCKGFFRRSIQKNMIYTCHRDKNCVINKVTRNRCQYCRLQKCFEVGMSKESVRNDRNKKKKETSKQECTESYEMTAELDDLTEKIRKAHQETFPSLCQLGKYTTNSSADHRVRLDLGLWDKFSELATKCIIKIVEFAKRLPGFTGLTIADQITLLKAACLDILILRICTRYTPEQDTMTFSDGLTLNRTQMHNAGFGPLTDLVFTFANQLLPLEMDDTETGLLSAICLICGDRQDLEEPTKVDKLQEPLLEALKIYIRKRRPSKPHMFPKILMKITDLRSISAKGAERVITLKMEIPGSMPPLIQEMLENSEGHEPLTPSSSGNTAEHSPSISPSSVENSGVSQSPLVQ
From the text: as §1, §2

RARα without RXRα = biological target: T6, RARα without RXRα (Homo sapiens, UniProt P10276 P10276:1-462); test: as above; settings: tags: TNT wheat germ; label: 32P
T6 sequence: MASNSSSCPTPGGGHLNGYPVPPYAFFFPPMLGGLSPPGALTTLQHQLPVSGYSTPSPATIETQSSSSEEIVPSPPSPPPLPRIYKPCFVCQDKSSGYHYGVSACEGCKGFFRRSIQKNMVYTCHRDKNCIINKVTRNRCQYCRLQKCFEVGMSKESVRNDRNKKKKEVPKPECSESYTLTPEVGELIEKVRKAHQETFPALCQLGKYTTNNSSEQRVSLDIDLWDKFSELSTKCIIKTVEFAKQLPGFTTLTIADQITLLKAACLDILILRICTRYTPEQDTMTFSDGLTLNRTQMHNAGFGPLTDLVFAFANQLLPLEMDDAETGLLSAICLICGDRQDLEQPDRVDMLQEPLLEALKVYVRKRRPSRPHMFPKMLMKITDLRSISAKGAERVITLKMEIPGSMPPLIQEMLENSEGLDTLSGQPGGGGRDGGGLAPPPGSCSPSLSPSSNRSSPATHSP
From the text: as §1, §2

RARγ/RXRα heterodimer [5] = biological target: T1, RARγ/RXRα heterodimer; test: EMSA; neither bound nor competed with ABCA1 DR4; settings: tags: TNT wheat germ; pCMX-hRARγ, pCMX-hRXRα; label: 32P
From the text: as §1

RARα/RXRα heterodimer [6] = biological target: T2, RARα/RXRα heterodimer; test: EMSA; not shown; settings: tags: TNT wheat germ; label: 32P
From the text: as §1

RARβ/RXRα heterodimer [7] = biological target: T3, RARβ/RXRα heterodimer; test: EMSA; not shown; settings: tags: TNT wheat germ; label: 32P
From the text: as §1

RARγ/RXRα heterodimer [8] = biological target: T1, RARγ/RXRα heterodimer; test: EMSA; neither bound nor competed with ABCA1 DR4; settings: tags: TNT wheat germ; pCMX-hRARγ, pCMX-hRXRα; label: 32P; remark: listed apart in the source
Experimental: In vitro-translated RXRα and RARγ were incubated with ³²P-labeled hABCA1 DR4 element. […] (Left panel) RXRα, RARγ, and LXRβ were separately produced by using an in vitro transcription-translation wheat germ extract systems and used in EMSAs with a ³²P-labeled mouse SREBP-1c DR4b element as a probe. […] (Right panel) EMSA analysis as described in panel D but with a ³²P-labeled human ABCA1 DR4 element as a probe.

T1 sequence (P19793 whole entry, one chain of several): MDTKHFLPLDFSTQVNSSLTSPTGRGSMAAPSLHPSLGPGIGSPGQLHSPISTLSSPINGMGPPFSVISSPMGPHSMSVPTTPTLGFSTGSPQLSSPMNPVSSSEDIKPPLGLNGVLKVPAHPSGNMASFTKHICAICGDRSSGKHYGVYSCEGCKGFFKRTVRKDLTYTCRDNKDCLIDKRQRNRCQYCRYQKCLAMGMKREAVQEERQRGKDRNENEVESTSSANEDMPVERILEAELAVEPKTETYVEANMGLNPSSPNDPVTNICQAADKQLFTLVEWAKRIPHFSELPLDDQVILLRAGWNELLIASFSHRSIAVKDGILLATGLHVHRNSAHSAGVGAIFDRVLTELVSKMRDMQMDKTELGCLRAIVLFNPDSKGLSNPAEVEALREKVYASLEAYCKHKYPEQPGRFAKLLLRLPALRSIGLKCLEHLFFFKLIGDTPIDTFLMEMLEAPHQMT
T3 sequence (P19793 whole entry, one chain of several): as above
T2 sequence (P19793 whole entry, one chain of several): as above

## CC1=C(/C=C/C(C)=C/C=C/C(C)=C\C(=O)O)C(C)(C)CCC1 [13-cRA, isotretinoin]
apoCIII
  hepatic apoCIII expression: increases hepatic apoCIII expression

## O=S(=O)(c1ccccc1)N(CC(F)(F)F)c1ccc(C(O)(C(F)(F)F)C(F)(F)F)cc1 [TO-901317]
[1]
  increase in cholesterol efflux to apoA-I, ATRA compared with TO-901317: comparable increase in cholesterol efflux to apoA-I

B1: ABCA1 DR4 element (dsDNA)
DNA 1: ACTGGGCTTTGACCGATAGTAACCTCTGCGCTCG
DNA 2: CGAGCGCAGAGGTTACTATCGGTCAAAGCCCAGT
RARγ/RXRα heterodimer [2]
  binding result: binds
RARα/RXRα heterodimer [3]
  binding result: binds
RARβ/RXRα heterodimer [4]
  binding result: binds
RARγ without RXRα
  binding result: no binding
RARβ without RXRα
  binding result: no binding
RARα without RXRα
  binding result: no binding

B2: SREBP-1c DR4 element a (dsDNA)
DNA 1: ACTGCAGTGACCGCCAGTAACCCCAGC
DNA 2: GCTGGGGTTACTGGCGGTCACTGCAGT
RARγ/RXRα heterodimer [5]
  binding result: no binding
RARα/RXRα heterodimer [6]
  binding result: no binding
RARβ/RXRα heterodimer [7]
  binding result: no binding

B3: SREBP-1c DR4 element b (dsDNA)
DNA 1: ACTGGGACGCCCGCTAGTAACCCCGGC
DNA 2: GCCGGGGTTACTAGCGGGCGTCCCAGT
RARγ/RXRα heterodimer [8]
  binding result: no binding
RARα/RXRα heterodimer [6]
  binding result: no binding
RARβ/RXRα heterodimer [7]
  binding result: no binding
